The source of these data is US20250205169A1 (TIDAL THERAPEUTICS, published 2025).

The target in the test is T1, CD206 on M2 macrophages derived from primary human PBMC (human (macrophages derived from primary …, UniProt P22897 19-1456)).
T1 sequence (looked up): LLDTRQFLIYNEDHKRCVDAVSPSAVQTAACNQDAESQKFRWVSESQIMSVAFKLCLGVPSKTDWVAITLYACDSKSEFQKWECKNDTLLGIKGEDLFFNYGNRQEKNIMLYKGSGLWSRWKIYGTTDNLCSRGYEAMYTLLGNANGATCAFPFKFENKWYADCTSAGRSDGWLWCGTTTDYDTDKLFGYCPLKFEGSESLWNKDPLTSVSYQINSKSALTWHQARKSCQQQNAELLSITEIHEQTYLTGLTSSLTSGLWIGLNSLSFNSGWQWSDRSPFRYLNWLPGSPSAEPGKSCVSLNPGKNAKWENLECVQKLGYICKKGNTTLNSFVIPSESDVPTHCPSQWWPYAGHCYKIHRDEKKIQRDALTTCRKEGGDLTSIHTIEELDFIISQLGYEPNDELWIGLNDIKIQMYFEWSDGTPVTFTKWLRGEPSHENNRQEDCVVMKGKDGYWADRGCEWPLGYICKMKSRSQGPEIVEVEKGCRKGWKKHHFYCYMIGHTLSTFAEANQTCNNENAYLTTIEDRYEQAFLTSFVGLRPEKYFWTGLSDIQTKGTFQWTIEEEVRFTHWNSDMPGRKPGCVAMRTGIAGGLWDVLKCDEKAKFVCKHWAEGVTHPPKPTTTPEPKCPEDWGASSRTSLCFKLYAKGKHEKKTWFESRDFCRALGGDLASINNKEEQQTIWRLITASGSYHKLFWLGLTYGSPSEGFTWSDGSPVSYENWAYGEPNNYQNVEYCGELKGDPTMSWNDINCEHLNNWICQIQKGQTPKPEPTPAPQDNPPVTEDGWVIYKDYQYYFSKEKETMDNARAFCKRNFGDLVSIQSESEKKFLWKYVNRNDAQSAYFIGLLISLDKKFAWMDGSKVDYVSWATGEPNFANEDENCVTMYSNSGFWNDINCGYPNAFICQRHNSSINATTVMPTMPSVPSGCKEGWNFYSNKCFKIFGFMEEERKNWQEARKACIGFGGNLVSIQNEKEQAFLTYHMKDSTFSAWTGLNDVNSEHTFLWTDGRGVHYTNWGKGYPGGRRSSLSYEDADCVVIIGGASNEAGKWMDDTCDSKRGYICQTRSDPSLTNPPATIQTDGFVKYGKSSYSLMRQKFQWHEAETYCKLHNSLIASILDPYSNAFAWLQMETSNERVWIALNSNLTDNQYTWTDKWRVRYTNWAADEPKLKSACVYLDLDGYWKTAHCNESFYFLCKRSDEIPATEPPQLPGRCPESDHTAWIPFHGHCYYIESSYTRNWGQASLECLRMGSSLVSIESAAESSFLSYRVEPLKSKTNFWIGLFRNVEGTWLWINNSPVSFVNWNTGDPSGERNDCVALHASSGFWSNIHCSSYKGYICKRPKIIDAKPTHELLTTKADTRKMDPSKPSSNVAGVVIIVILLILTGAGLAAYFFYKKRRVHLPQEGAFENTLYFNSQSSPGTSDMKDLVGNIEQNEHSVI
Description: cell-based or functional assay.

B1: anti-CD206 VHH targeting moiety (aCD206 VHH), as DSPE-PEG2k-anti-CD206 VHH conjugate inserted into LNPs (VHH)
VHH: QVQLQESGGGLVQAGGSLRLSCAASGFTDDDYDIGWFRQAPGKEREGVSCISSSDGSTYYADSVKGRFTISSDNAKNTVYLQMNSLKPEDTAVYYCAADFFRWDSGSYYVRGCRHATYDYWGQGTQVTVSS
modifications: DSPE-PEG(2k)-maleimide covalently coupled to the thiol of a C-terminal cysteine residue
Turning to B1, the “GFP protein expression (MFI of transfected macrophages), fold difference between non-targeted and aCD206 targeted LNPs; Lipid 19A” value is 11 fold; the “GFP protein expression (MFI of transfected macrophages), fold difference between non-targeted and aCD206 targeted LNPs; Lipids 15 and 46” value amounted to 2 fold.
